# Assay results published in patent US20240343803A1 (SHANDONG SIMCERE BIOPHARMACEUTICAL, published 2024).
# Assays:
# [1] = target: T1, Fusion protein of extracellular domain of human TIGIT and His-tag (human TIGIT ECD-his) (human); experiment: BIAcore; KD ratio, by the numbers to TIGIT-005-H2L1 of r33
# T1 chain: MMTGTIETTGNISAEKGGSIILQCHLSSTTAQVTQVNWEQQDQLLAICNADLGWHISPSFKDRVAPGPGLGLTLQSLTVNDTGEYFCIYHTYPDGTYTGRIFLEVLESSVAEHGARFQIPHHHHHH
# [2] = target: T2, cynomolgus monkey PVRIG (Novoprotein, Cat NO. C09B) (cynomolgus monkey, UniProt A0A2K5WVV8 41-171); experiment: ELISA, coated cynomolgus monkey PVRIG
# T2 construct: bought reagent; also called cynomolgus monkey PVRIG recombinant protein
# T2 sequence: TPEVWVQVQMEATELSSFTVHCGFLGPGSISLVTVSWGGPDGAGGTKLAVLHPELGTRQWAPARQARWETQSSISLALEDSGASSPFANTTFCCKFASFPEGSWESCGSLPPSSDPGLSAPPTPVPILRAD
# [3] = target: T3, cynomolgus monkey PVRIG on FlpinCHO-cyno PVRIG cells (cynomolgus monkey, UniProt A0A2K5WVV8 41-322); experiment: FACS, FlpinCHO-cyno PVRIG cells
# T3 construct: whole, on cells; also called FlpinCHO-cynomolgus monkey PVRIG
# T3 sequence: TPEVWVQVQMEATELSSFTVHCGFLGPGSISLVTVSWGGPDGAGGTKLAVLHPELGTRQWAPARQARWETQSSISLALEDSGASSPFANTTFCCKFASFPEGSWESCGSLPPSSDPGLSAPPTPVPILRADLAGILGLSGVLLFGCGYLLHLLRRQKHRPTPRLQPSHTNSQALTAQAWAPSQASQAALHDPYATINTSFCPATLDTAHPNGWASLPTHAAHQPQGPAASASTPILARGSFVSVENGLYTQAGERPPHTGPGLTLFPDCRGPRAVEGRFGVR
# [4] = target: T4, human TIGIT ECD-mFc (fusion protein of extracellular domain of human TIGIT and mouse IgG2a Fc fragment) (human); experiment: competition cell ELISA; blocked: TIGIT ECD-mFc binding to CHO-K1 CD155 cells
# T4 chain: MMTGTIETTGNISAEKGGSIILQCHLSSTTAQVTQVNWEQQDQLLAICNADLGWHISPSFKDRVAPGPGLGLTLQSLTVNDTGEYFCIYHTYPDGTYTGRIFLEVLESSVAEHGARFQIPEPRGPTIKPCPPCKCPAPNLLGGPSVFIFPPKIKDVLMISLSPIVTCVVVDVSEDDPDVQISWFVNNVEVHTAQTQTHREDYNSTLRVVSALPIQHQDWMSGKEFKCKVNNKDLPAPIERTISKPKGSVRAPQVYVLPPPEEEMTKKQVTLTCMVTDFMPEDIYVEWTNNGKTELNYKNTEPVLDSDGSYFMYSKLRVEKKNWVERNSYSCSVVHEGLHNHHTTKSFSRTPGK
# Experimental: After discarding the culture supernatant, the cells were fixed with a cell fixation solution (Beyotime, P0098), 50 μL/well, at room temperature for 1 hour. After washing once with 0.05% Tween 20-PBS on the Microplate Washer, the plate was added with 5% skim milk powder-PBS, 250 μL/well, and incubated at 37° C. for 2-4 hours. The plate was then washed 3 times with 0.05% Tween 20-PBS on the Microplate Washer. The sample were mixed with human TIGIT ECD-mFc (working concentration: 100 ng/mL) and incubated for 0.5 hour. The mixed solution of antigen and antibody was added to the cell plate (50 μL/well). The cells were incubated with the mixture at 37° C. for 1.5-2 hours and then washed with 0.05% Tween 20-PBS for 3 times on the Microplate Washer. […] After washing 3 times with 0.05% Tween 20-PBS on the Microplate Washer, the plate was added with TMB chromogenic solution (KPL, 52-00-03), 50 μL/well, and incubated at 37° C. for 10 minutes. 1M HCL, 50 µL/well, was then added into the plate to terminate the reaction, and the OD450 nm was read by a microplate reader (Biotek, Powerwave HT).
# [5] = target: T5, full-length human TIGIT on CHO-K1 cells (CHO-K1 human TIGIT) (human, UniProt Q495A1 22-244); experiment: FACS, medium expression strain
# T5 construct: NCBI XP_024309156.1; entry includes the signal peptide; also called high expression strain 1D2; medium expression strain 2D10
# T5 sequence: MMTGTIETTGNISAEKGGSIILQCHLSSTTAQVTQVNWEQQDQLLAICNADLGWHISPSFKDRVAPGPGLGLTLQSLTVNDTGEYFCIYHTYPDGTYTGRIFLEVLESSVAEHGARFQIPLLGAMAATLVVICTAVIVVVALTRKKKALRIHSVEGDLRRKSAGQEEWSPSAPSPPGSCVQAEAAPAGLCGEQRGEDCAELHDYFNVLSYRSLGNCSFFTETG
# Experimental: The collected cells were washed once with PBS (Hyclone, CAT #SH30256), resuspended to 2×10⁵/50 μL with 1% BSA-PBS. The antibodies were diluted to 80 nM with 1% BSA-PBS (diluted by 3-fold serial dilution for 12 concentration points). The 50 μL cells were then mixed with 50 μL diluted antibodies, and then incubated at 4° C. for 60 minutes. […] After washing twice with PBS, the cell samples were resuspended with 1% BSA-PBS, 100 μL/well and then analyzed by flow cytometry (BD, Canto II). […] [0298] (c) The effect of anti-TIGIT chimeric antibodies blocking the interaction between Bio-CD155-His and CHO-K1 human TIGIT high expression cell strains detected by FACS
binder,measurement,setting,value
"TIGIT-005-H2L1d (antibody, V domains shown, Humanized anti-TIGIT antibody with NG-site mutation in VL) VH: EVQLVQSGAEVKKPGASVKVSCKASGYAFTNYLIEWVRQAPGQRLEWMGVINPGSGGTNYKEKFKGRVTITADKSSSTAYMELSSLRSEDTAVYYCARGEYFFFDYWGQGTTVTVSS VL: DIVMTQSPDSLAVSLGERATINCKASQHVSNAVAWYQHKPGQSPKLLIYSASYRYTGVPDRFSGSGSGTDFTLTISSLQAEDVAVYYCQQHYNTPHTFGGGTKVEIK",Fold change vs chimeric antibodies (KD),[1],1.21 fold
"SRF813-hIgG1 (antibody, V domains shown, human IgG1 format by its name) VH: QVQLVQSGAEVKKPGSSVKVSCKASGGTFSSAAISWVRQAPGQGLEWMGNIIPIVGIANYAQKFQGRVTITADESTSTAYMELSSLRSEDTAVYYCARDTGRGYTRHFWFDPWGQGTLVTVSS VL: DIQMTQSPSSLSASVGDRVTITCRASQSISSYLNWYQQKPGKAPKLLIYAASSLQSGVPSRFSGSGSGTDFTLTISSLQPEDFATYYCQQSDILYTFGGGTKVEIK",EC50 (read off the curve),[2],~0.06 nM
same,EC50 (read off the curve),[3],1 to 1.4 nM
"RG6058-hIgG1 (antibody, V domains shown, human IgG1 format by its name; also called Roche RG6058; control antibody RG6058) VH: EVQLQQSGPGLVKPSQTLSLTCAISGDSVSSNSAAWNWIRQSPSRGLEWLGKTYYRFKWYSDYAVSVKGRITINPDTSKNQFSLQLNSVTPEDTAVFYCTRESTTYDLLAGPFDYWGQGTLVTVSS VL: not shown",IC50 (read off the curve),[4],~0.6 nM
same,EC50,[5],0.616 nM
